Changes are numbered by the printed parent chain. Names and notes keep the numbering of the source. One block for each molecule: values may come before it.
What was measured:
[1] = target: T1, human B7-1 R63D on cells (Homo sapiens, UniProt P33681 35-280); assay: cell-cell binding, flow cytometry; percent of the wild-type pair
T1 construct: mCherry-tagged point mutant; also called ARG63 ASP
T1 chain: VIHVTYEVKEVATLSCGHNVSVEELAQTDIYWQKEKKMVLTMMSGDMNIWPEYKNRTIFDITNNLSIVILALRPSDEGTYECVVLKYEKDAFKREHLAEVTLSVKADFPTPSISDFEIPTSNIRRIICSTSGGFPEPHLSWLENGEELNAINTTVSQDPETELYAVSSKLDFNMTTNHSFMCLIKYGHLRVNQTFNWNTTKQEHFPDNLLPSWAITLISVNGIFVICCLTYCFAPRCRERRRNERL

[2] = target: T2, human B7-1 N82E on cells (Homo sapiens, UniProt P33681 35-280); assay: as above
T2 construct: C-terminally fused to mCherry; also called ASN82 GLU
T2 chain: T1 chain with D29R, N48E

[3] = target: T3, human B7-1 K120D on cells (Homo sapiens, UniProt P33681 35-280); assay: as above
T3 construct: mCherry-tagged point mutant; also called LYS120 ASP
T3 chain: T1 chain with D29R, K86D

[4] = target: T4, human B7-1 K127D on cells (Homo sapiens, UniProt P33681 35-280); assay: as above
T4 construct: mCherry-tagged point mutant; also called LYS127 ASP
T4 chain: T1 chain with D29R, K93D

[5] = target: T5, human B7-1 K139D on cells (Homo sapiens, UniProt P33681 35-280); assay: as above
T5 construct: mCherry-tagged point mutant; also called LYS139ASP; LYS139 ASP
T5 chain: T1 chain with D29R, K105D

[6] = target: human B7-1 (CD80), full length, expressed on HEK 293 cells (Homo sapiens) (UniProt P33681); assay: as above
[7] = target: T6, human p75 neurotrophin receptor, full length, expressed on HEK 293 cells (Homo sapiens, UniProt P08138 29-427); assay: cell-cell screen, flow cytometry
T6 construct: Full-length human p75 with a cytosolic fluorescent tag (GFP); also called p75NTR; NGFR
T6 sequence: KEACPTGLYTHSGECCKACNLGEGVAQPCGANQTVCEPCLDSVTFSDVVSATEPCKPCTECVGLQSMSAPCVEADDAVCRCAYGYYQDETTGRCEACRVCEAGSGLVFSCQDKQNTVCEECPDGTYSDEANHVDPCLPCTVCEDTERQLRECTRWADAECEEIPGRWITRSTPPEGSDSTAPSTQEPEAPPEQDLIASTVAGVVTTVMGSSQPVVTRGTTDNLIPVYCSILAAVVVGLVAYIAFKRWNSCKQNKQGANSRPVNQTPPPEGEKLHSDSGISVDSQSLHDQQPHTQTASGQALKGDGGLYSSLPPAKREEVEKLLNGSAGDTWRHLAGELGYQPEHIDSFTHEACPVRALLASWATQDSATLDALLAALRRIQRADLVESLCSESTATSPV
Experimental: As illustrated, cells were transfected with expression cassettes expressing labeled receptors or labeled ligands, receptor-expressing cells were mixed with ligand-expressing cells and cell-to-cell binding was monitored by detecting the labels associated with the receptor and the ligand. […] Binding was detected using an anti-mIgG2A ab and flow cytometry. The binding curves were fit and the Bmax, EC50, and hill coefficient were calculated using the equation Y=Bmax*Xh/(Kdh+Xh).

[8] = target: T7, human B7-1 (CD80), full length, expressed on HEK 293 cells (Homo sapiens, UniProt P33681 35-280); assay: cell-cell binding, flow cytometry; percent of the wild-type pair
T7 construct: also called hB7-1; B7-1-mCherry
T7 sequence: T1 chain with D29R

[9] = target: T8, p75NTR-mIgG2a (human, UniProt P08138 29-250); assay: Fc fusion on cells expressing chimera B7-1-GFP, flow cytometry
T8 construct: Full-length ectodomain; also called p75-mIgG2A; recombinant p75 mIgG2a; not shown: C-terminal mIgG2a-His10 Fc domain
T8 sequence: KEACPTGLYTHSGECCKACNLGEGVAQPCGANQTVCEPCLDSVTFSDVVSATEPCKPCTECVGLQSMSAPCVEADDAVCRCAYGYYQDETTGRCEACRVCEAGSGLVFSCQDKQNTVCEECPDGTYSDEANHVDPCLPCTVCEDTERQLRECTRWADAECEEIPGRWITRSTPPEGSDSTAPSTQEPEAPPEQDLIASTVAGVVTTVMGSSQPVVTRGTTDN
Experimental: (§1) The arrow identifies the swapped exons. […] Binding was assessed using an anti mIgG2a-647 labeled antibody and flow cytometry.

[10] = target: T9, mouse CTLA-4-mIgG2a (mouse, UniProt P09793 36-161); assay: as above
T9 construct: not shown: mIgG2a Fc
T9 sequence (P09793 36-161): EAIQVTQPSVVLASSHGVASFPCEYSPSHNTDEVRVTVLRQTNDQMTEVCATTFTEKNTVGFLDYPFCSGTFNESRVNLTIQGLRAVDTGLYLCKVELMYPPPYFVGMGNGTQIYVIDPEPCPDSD
Experimental: as §1

percent binding [1]: 8%
percent binding [2]: 25%
percent binding [3]: 12%
percent binding [4]: 26%
percent binding [5]: 26%
percent binding [6]: 66%
Molecule: human p75NTR mutant printed ARG166H on cells (from UniProt P08138 29-427) (receptor)

binding result [7]: no binding
B1: B7-2 expressed on cells (ligand, human, UniProt P42081 24-329, looked up)
chain: APLKIQAYFNETADLPCQFANSQNQSLSELVVFWQDQENLVLNEVYLGKEKFDSVHSKYMGRTSFDSDSWTLRLHNLQIKDKGLYQCIIHHKKPTGMIRIHQMNSELSVLANFSQPEIVPISNITENVYINLTCSSIHGYPEPKKMSVLLRTKNSTIEYDGVMQKSQDNVTELYDVSISLSVSFPDVTSNMTIFCILETDKTRLLSSPFSIELEDPQPPPDHIPWITAVLPTVIICVMVFCLILWKWKKKKRPRNSYKCGTNTMEREESEQTKKREKIHIPERSDEAQRVFKSSKTSSCDKSDTCF
notes: whole, on cells

percent binding [1]: 29%
percent binding [2]: 77%
percent binding [3]: 16%
percent binding [8]: 81%
percent binding [4]: 23%
percent binding [5]: 18%
B2: human p75NTR F136K on cells (receptor)
chain: T6 sequence with F108K
notes: Fluorescent-tagged point mutant

percent binding [1]: 26%
percent binding [2]: 15%
percent binding [3]: 19%
percent binding [8]: 64%
percent binding [4]: 25%
percent binding [5]: 25%
B3: human p75NTR L165H on cells (receptor)
chain: T6 sequence with L137H
notes: Fluorescent-tagged point mutant; also called LEU165H*

percent binding [1]: 18%
percent binding [2]: 11%
percent binding [3]: 20%
percent binding [8]: 83%
percent binding [4]: 19%
percent binding [5]: 19%
B4: human p75NTR L165K on cells (receptor)
chain: T6 sequence with L137K
notes: Fluorescent-tagged point mutant; also called LEU165K*

binding result [7]: no binding
B5: ICOSL expressed on cells (ligand, human, UniProt O75144 19-302, looked up)
chain: DTQEKEVRAMVGSDVELSCACPEGSRFDLNDVYVYWQTSESKTVVTYHIPQNSSLENVDSRYRNRALMSPAGMLRGDFSLRLFNVTPQDEQKFHCLVLSQSLGFQEVLSVEVTLHVAANFSVPVVSAPHSPSQDELTFTCTSINGYPRPNVYWINKTDNSLLDQALQNDTVFLNMRGLYDVVSVLRIARTPSVNIGCCIENVLLQQNLTVGSQTGNDIGERDKITENPVSTGEKNAATWSILAVLCLLVVVAVAIGWVCRDRCLQHSYAGAWAVSPETELTGHV
notes: whole, on cells

percent binding [1]: 13%
percent binding [2]: 10%
percent binding [3]: 16%
percent binding [8]: 38%
percent binding [4]: 11%
percent binding [5]: 14%
B6: human p75NTR P150H on cells (receptor)
chain: T6 sequence with P122H
notes: as for B2

percent binding [1]: 25%
percent binding [2]: 66%
percent binding [3]: 15%
percent binding [8]: 90%
percent binding [4]: 16%
percent binding [5]: 13%
B7: human p75NTR F136H on cells (receptor)
chain: T6 sequence with F108H
notes: as for B2

percent binding [1]: 14%
percent binding [2]: 13%
percent binding [3]: 17%
percent binding [8]: 69%
percent binding [4]: 15%
percent binding [5]: 11%
B8: human p75NTR P150K on cells (receptor)
chain: T6 sequence with P122K
notes: as for B2

binding result [9]: binds
binding result [10]: binds
B9: chimeric human-mouse B7-1 protein expressed on HEK 293 cells (ligand)
chain: VIHVTKEVKEVATLSCGHNVSVEELAQTRIYWQKEKKMVLTMMSGDMNIWPEYKNRTIFDITNNLSIVILALRPSDEGTYECVVLKYEKDAFKREHLAEVTLSVKADFSTPNITESGNPSADTKRITCFASGGFPKPRFSWLENGRELPGINTTISQDPESELYTISSQLDFNTTRNHTIKCLIKYGDAHVSEDFTWEKPPEDPPDSKNTLVLFGAGFGAVITVVVIVVIIKCFCKHRSCFRRNEASRETNNSLTFGPEEALAEQTVFL
notes: also called human-mouse chimera B7-1-GFP; h:mB7-1

— US20240201167A1 (ALBERT EINSTEIN COLLEGE OF MEDICINE, published 2024)
